# B1: PTPRD (parent)
# chain: PVVSMDLDPQPITDEEEGLIWVVG
# B2: MYBL2 (parent)
# chain: FPNRTDQQCQYRWLRVLNPDLVKG
# Variants of: B1
# Experiment: protein stability index of a GFP-peptide fusion (GPS, HEK-293T) (PSI 1-6); higher = more stable
# Conditions: c terminus: a fixed tail appended
# 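Note: lentivirally expressed fusions sorted by FACS into six bins by GFP to DsRed ratio, PSI derived from sequencing read proportions per bin multiplied by bin number.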
row,Variant,protein stability index
1,PVVSMDLIPQPITDEEEGLIWVVG [D8I],2.53
2,PVVSMDLDPQPITDEEEMLIWVVG [G18M],2
3,PVVSMDLDPQPITDEQEGLIWVVG [E16Q],3.79
4,PVVSMDLDPQPITDEEEGLIWVVN [G24N],4.15

# Variants of: B2
# Experiment: as above
# Conditions: c terminus: a fixed tail appended
row,Variant,protein stability index
1,FPNRTDQQCQYRWLRVLNPDLVIG [K23I],1.95
2,FPNRTDQQCQYRWLRVLNPDLVFG [K23F],2.47
3,FPNRTDQQCQYRWLRVLNPDLVLG [K23L],1.64
4,FPNRTDQQCQYRWLRVLNPDLVNG [K23N],2.11
5,FPNRTDQQCQYRWLRVLNPDLVTG [K23T],1.59
6,FPNRTDQQCQYRWLRVLNPDLVSG [K23S],1.26
7,FPNRTDQQCQYRWLRVLNPDLVMG [K23M],1.5
8,FPNRTDQQCQYRWLRVLNPDLVAG [K23A],1.22
9,FPNRTDQQCQYRWLRVLNPDLVRG [K23R],2.21
10,FPNRTDQQCQYRWLRVLNPDLVCG [K23C],3.33
11,FPNRTDQQCQYRWLRVLNPDLVVG [K23V],1.4
12,FPNRTDQQCQYRWLRVLNPDLVGG [K23G],1.8
13,FPNRTDQQCQYRWLRVLNPDLVDG [K23D],1.97
14,FPNRTDQQCQYRWLRVLNPDLVEG [K23E],1.89
15,FPNRTDQQCQYRWLRVLNPDLVYG [K23Y],1.38
16,FPNRTDQQCQYRWLRVLNPDLVHG [K23H],1.7
17,FPNRTDQQCQYRWLRVLNPDLVQG [K23Q],2.1
18,FPNRTDQQCQYRWLRVLNPDLVPG [K23P],2.06
19,FPNRTDQQCQYRWLRVLNPDLVWG [K23W],1.27
20,FPNRTDQQCQYRWLRVLNPDLVKM [G24M],2.18
21,FPNRTDQQCQYRWLRVLNPDLVKS [G24S],1.68
22,FPNRTDQQCQYRWLRVLNPDLVKH [G24H],1.41
23,FPNRTDQQCQYRWLRVLNPDLVKE [G24E],2.02

row,Variant,protein stability index
1,FPNRTDQQCQYRWLRVLNPDLVKD [G24D],1.94
2,FPNRTDQQCQYRWLRVLNPDLVKC [G24C],1.89
3,FPNRTDQQCQYRWLRVLNPDLVKV [G24V],1.71
4,FPNRTDQQCQYRWLRVLNPDLVKQ [G24Q],1.91
5,FPNRTDQQCQYRWLRVLNPDLVKL [G24L],2.35
6,FPNRTDQQCQYRWLRVLNPDLVKN [G24N],2.44
7,FPNRTDQQCQYRWLRVLNPDLVKW [G24W],1.55
8,FPNRTDQQCQYRWLRVLNPDLVKT [G24T],1.87
9,FPNRTDQQCQYRWLRVLNPDLVKA [G24A],1.41
10,FPNRTDQQCQYRWLRVLNPDLVKI [G24I],1.43
11,FPNRTDQQCQYRWLRVLNPDLVKF [G24F],1.85
12,FPNRTDQQCQYRWLRVLNPDLVKP [G24P],2.26
13,FPNRTDQQCQYRWLRVLNPDLVKR [G24R],1.74
14,FPNRTDQQCQYRWLRVLNPDLVKK [G24K],2.01
15,FPNRTDQQCQYRWLRVLNPDLVKY [G24Y],1.85
16,FPNRTDQQCQYRWLRVLNPDIVKG [L21I],2.85
17,FPNRTDQQCQYRWLRVLNPDGVKG [L21G],1.66
18,FPNRTDQQCQYRWLRVLNPDRVKG [L21R],2.31
19,FPNRTDQQCQYRWLRVLNPDYVKG [L21Y],1.98
20,FPNRTDQQCQYRWLRVLNPDDVKG [L21D],2.12
21,FPNRTDQQCQYRWLRVLNPDWVKG [L21W],1.91
22,FPNRTDQQCQYRWLRVLNPDEVKG [L21E],2.43
23,FPNRTDQQCQYRWLRVLNPDFVKG [L21F],2.26

row,Variant,protein stability index
1,FPNRTDQQCQYRWLRVLNPDTVKG [L21T],2.26
2,FPNRTDQQCQYRWLRVLNPDVVKG [L21V],2.26
3,FPNRTDQQCQYRWLRVLNPDQVKG [L21Q],2.08
4,FPNRTDQQCQYRWLRVLNPDPVKG [L21P],2.83
5,FPNRTDQQCQYRWLRVLNPDCVKG [L21C],2.18
6,FPNRTDQQCQYRWLRVLNPDNVKG [L21N],2.37
7,FPNRTDQQCQYRWLRVLNPDHVKG [L21H],1.48
8,FPNRTDQQCQYRWLRVLNPDSVKG [L21S],2.17
9,FPNRTDQQCQYRWLRVLNPDMVKG [L21M],2.27
10,FPNRTDQQCQYRWLRVLNPDKVKG [L21K],2.01
11,FPNRTDQQCQYRWLRVLNPDAVKG [L21A],1.88
12,FPNRTDQQCQYRWLRVLNPVLVKG [D20V],1.14
13,FPNRTDQQCQYRWLRVLNPNLVKG [D20N],2.43
14,FPNRTDQQCQYRWLRVLNPKLVKG [D20K],2.06
15,FPNRTDQQCQYRWLRVLNPTLVKG [D20T],1.54
16,FPNRTDQQCQYRWLRVLNPRLVKG [D20R],2.22
17,FPNRTDQQCQYRWLRVLNPWLVKG [D20W],2.27
18,FPNRTDQQCQYRWLRVLNPQLVKG [D20Q],1.78
19,FPNRTDQQCQYRWLRVLNPMLVKG [D20M],1.89
20,FPNRTDQQCQYRWLRVLNPLLVKG [D20L],1.7
21,FPNRTDQQCQYRWLRVLNPSLVKG [D20S],2.24
22,FPNRTDQQCQYRWLRVLNPPLVKG [D20P],2.35
23,FPNRTDQQCQYRWLRVLNPHLVKG [D20H],2.06

row,Variant,protein stability index
1,FPNRTDQQCQYRWLRVLNPILVKG [D20I],1.74
2,FPNRTDQQCQYRWLRVLNPYLVKG [D20Y],1.76
3,FPNRTDQQCQYRWLRVLNPDLTKG [V22T],1.95
4,FPNRTDQQCQYRWLRVLNPDLLKG [V22L],2.21
5,FPNRTDQQCQYRWLRVLNPDLRKG [V22R],1.66
6,FPNRTDQQCQYRWLRVLNPDLNKG [V22N],2.01
7,FPNRTDQQCQYRWLRVLNPDLSKG [V22S],2.25
8,FPNRTDQQCQYRWLRVLNPDLFKG [V22F],1.59
9,FPNRTDQQCQYRWLRVLNPDLQKG [V22Q],1.54
10,FPNRTDQQCQYRWLRVLNPDLMKG [V22M],2.08
11,FPNRTDQQCQYRWLRVLNPDLEKG [V22E],1.55
12,FPNRTDQQCQYRWLRVLNPDLKKG [V22K],1.64
13,FPNRTDQQCQYRWLRVLNPDLCKG [V22C],1.79
14,FPNRTDQQCQYRWLRVLNPDLIKG [V22I],2.04
15,FPNRTDQQCQYRWLRVLNPDLAKG [V22A],1.71
16,FPNRTDQQCQYRWLRVLNPDLPKG [V22P],1.83
17,FPNRTDQQCQYRWLRVLNPDLDKG [V22D],2.02
18,FPNRTDQQCQYRWLRVLNPDLYKG [V22Y],2.01
19,FPNRTDQQCQYRWLRVLNPDLWKG [V22W],2.11
20,FPNRTDQQCQYRWLRVLNPDLHKG [V22H],2.74
21,FPNRTDQQCQYRWLRVLNPDLGKG [V22G],2
